US11906524B2, “Urea biosensors and uses thereof” (Duke University, priority 2015, dated 2024)
Residue numbers refer to the chain shown, from its start. Numbers in names are those of the source. One block for each molecule: values may come before it.

Experiments:
[1] = Urea titration of emission intensity spectra (Nanodrop3300) with ratiometric analysis, singly labeled conjugates; assay type: binding
Description: Determination of emission intensity spectra.
(§1) Ratiometric analysis of urea binding. […] 2
(§2) For a single urea-binding site, the fractional saturation is given by
(§3) [formula] where [L] is the ligand (urea) concentration and Kd the dissociation constant, ^trueKd for ytrue.
[formula] where ^appIλ2 and ^satIλ2 are the emission intensities of the monochromatic signal at wavelength λ2 of the ligand-free and ligand-bound protein, respectively.

[2] = Temperature- and urea-dependent fluorescence landscapes of fluorescent conjugates (Roche LightCycler); assay type: binding; set-up: key: y, yes; n, no; details: fluorescent response to urea
Protocol: We constructed 20 single cysteine mutants in csUBP7, exploring 7 endosteric, 12 peristeric, and 1 allosteric position (FIG. 9). At each position we attached the Prodan-derived fluorophores Acrylodan and Badan, which differ by one methylene group in their thiol-reactive linker. The fluorescent responses of these conjugates was determined initially as a function of urea concentration and temperature (FIG. 10). […] The ligand dependence of the emission spectra shapes was determined for these conjugates (Table 8).
Determination of temperature- and ligand-dependent fluorescence landscapes. […] Urea concentrations were varied from 0-4.8 M in 20 mM KCl, 20 mM MOPS (pH 7.4). […] Temperatures were advanced in 1K steps.
as §1, §2, §3
To obtain the temperature dependence of the binding reaction, the Kd values of all the individually determined isotherms were fit the Gibbs-Hemholtz equation (Layton and Hellinga, 2010, Biochemistry, 49, 10831-41):
[formula] where ΔGb^•(T) is the standard free energy of binding at 1 M ligand at temperature T,
[formula] Δ^refHb^• and Δ^refSb^• the molar enthalpy and entropy of binding, respectively, at the reference temperature, Tref, and ΔCp,b the heat capacity of the binding reaction.

[3] = mutation in the csUBP7 186C·Acrylodan conjugate

Kd ([1]; fluorophore conjugated to csUBP7 186C, Q114A, fit of equation 1 to the monochromatic emission intensities, Nanodrop3300, read-out: trueKd (urea)): 300 µM
Molecule: Oregon Green
monochromatic intensity change ([1]; fluorophore conjugated to csUBP7 186C variant with Q114A, increase on urea): ~2 fold

trueKd (urea) ([1]; fluorophore conjugated to csUBP7 186C, Q114A, fit of equation 1 to the monochromatic emission intensities, Nanodrop3300): n/b
Molecule: Texas Red

B1: N211A: csUBP7 186C, 211A mutant (SEQ ID NO: 82), tested as Acrylodan conjugate (conjugate)
chain: MSSSESEKEKSEETIKVGILHSLSGTMSISEVSLKDAELMAIEEINNNGGVLGKKLEPIVEDGASDWPTFAEKAKKLLQKDKVAVIFGAWTSASRKAVLPVVEENNGLLFYPVQYEGLESSPNIFYMGAAPNQQIVPAVKWLFDNGKKRFYLLGSDYVFPRTANKIIKAYLKYLGGVVVGEEYTPCGHTDYSSVINKIKAAKPDVVFNTLAGDSNVAFFKQLKDAGIDANTLPVMSVSIAEEEIKGIGPEYLKGHLVTWNYFQSVDTPENKEFVEKYKKKYGEDRVTDDPIEAAYIGVYLWAKAVEKAGSTDVDKVREAAKGIEFNAPEGPVKIDGDNQHLYKTVRIGEILENGQIRELWKTNKPVKPDPYLKGYEWAQGLSEQGGSHHHHHH
modifications: Acrylodan conjugate; csUBP7_186C.28 (186C, 211A substitution mutant, signal peptide replaced with M and a GGSHHHHHH at C-terminus, and also comprising a C89A substitution)
effect of mutation on urea affinity [1, 3]: nearly abolishes binding

B2: csUBP7 S65C: csUBP7 65C cysteine mutant (SEQ ID NO: 26), tested as Acrylodan and Badan conjugates (conjugate)
chain: B1 chain with S65C, C186L, A211N
modifications: Acrylodan or Badan conjugate; csUBP7_65C (65C substitution mutant with signal peptide replaced with M and a GGSHHHHHH at C-terminus, and also comprising a C89A substitution)
Response ([2]; Acrylodan conjugate): n
Response ([2]; Badan conjugate): y

B3: V113A: csUBP7 186C, 113A mutant (SEQ ID NO: 69), tested as Acrylodan conjugate (conjugate)
chain: B1 chain with V113A, A211N
modifications: Acrylodan conjugate; csUBP7_186C.15 (186C, 113A substitution mutant, signal peptide replaced with M and a GGSHHHHHH at C-terminus, and also comprising a C89A substitution)
effect of mutation on urea affinity [1, 3]: weakens binding significantly

B4: V113T: csUBP7 186C, 113T mutant (SEQ ID NO: 70), tested as Acrylodan conjugate (conjugate)
chain: B1 chain with V113T, A211N
modifications: Acrylodan conjugate; csUBP7_186C.16 (186C, 113T substitution mutant, signal peptide replaced with M and a GGSHHHHHH at C-terminus, and also comprising a C89A substitution)
effect of mutation on urea affinity [1, 3]: only a small effect

B5: N211E: csUBP7 186C, 211E mutant (SEQ ID NO: 86), tested as Acrylodan conjugate (conjugate)
chain: B1 chain with A211E
modifications: Acrylodan conjugate; csUBP7_186C.32 (186C, 211E substitution mutant, signal peptide replaced with M and a GGSHHHHHH at C-terminus, and also comprising a C89A substitution)
effect of mutation on urea affinity [1, 3]: weakens affinity

B6: csUBP7 Y111C: csUBP7 111C cysteine mutant (SEQ ID NO: 33), tested as Acrylodan and Badan conjugates (conjugate)
chain: B1 chain with Y111C, C186L, A211N
modifications: Acrylodan or Badan conjugate; csUBP7_111C (111C substitution mutant with signal peptide replaced with M and a GGSHHHHHH at C-terminus, and also comprising a C89A substitution)
Response ([2]; Acrylodan conjugate): n
Response ([2]; Badan conjugate): n

B7: csUBP7 A93C: csUBP7 93C cysteine mutant (SEQ ID NO: 31), tested as Acrylodan and Badan conjugates (conjugate)
chain: B1 chain with A93C, C186L, A211N
modifications: Acrylodan or Badan conjugate; csUBP7_93C (93C substitution mutant with signal peptide replaced with M and a GGSHHHHHH at C-terminus, and also comprising a C89A substitution)
Response ([2]; Acrylodan conjugate): y
Response ([2]; Badan conjugate): n

B8: Q114E: csUBP7 186C, 114E mutant (SEQ ID NO: 76), tested as Acrylodan conjugate (conjugate)
chain: B1 chain with Q114E, A211N
modifications: Acrylodan conjugate; csUBP7_186C.22 (186C, 114E substitution mutant, signal peptide replaced with M and a GGSHHHHHH at C-terminus, and also comprising a C89A substitution)
effect of mutation on urea affinity [1, 3]: improves binding by an order of magnitude

B9: csUBP7 S92C: csUBP7 92C cysteine mutant (SEQ ID NO: 30), tested as Acrylodan and Badan conjugates (conjugate)
chain: B1 chain with S92C, C186L, A211N
modifications: Acrylodan or Badan conjugate; csUBP7_92C (92C substitution mutant with signal peptide replaced with M and a GGSHHHHHH at C-terminus, and also comprising a C89A substitution)
Response ([2]; Acrylodan conjugate): n
Response ([2]; Badan conjugate): n

B10: S92A: csUBP7 186C, S92A mutant (SEQ ID NO: 65), tested as Acrylodan conjugate (conjugate)
chain: B1 chain with S92A, A211N
modifications: Acrylodan conjugate; csUBP7_186C.11 (186C, S92A substitution mutant, signal peptide replaced with M and a GGSHHHHHH at C-terminus, and also comprising a C89A substitution)
effect of mutation on urea affinity [1, 3]: abolishes binding

B11: V113Q: csUBP7 186C, 113Q mutant (SEQ ID NO: 72), tested as Acrylodan conjugate (conjugate)
chain: B1 chain with V113Q, A211N
modifications: Acrylodan conjugate; csUBP7_186C.18 (186C, 113Q substitution mutant, signal peptide replaced with M and a GGSHHHHHH at C-terminus, and also comprising a C89A substitution)
fold stronger affinity than either V113N or V113H [1, 3]: 10 fold
